Source: patent US7101851 (dated 2006)
Bridges are numbered along the chain shown (N, C = ends). Where no end group is shown, it is not given here. [ ]: non-standard residue; d: D form. The star is where a group is joined. Biotin = O=C1N[C@H]2[C@H](CS[C@H]2CCCCC(=O)*)N1; Oic = O=C(O)[C@@H]1C[C@@H]2CCCC[C@@H]2N1; 2Nal = N[C@@H](Cc1ccc2ccccc2c1)C(=O)O; Hyp = O=C(O)[C@@H]1C[C@@H](O)CN1; hSer(lactone) = O=C1OCC[C@@H]1N*; Pip = O=C(O)[C@@H]1CCCCN1; NMeA = CN[C@@H](C)C(=O)O; Sar = CNCC(=O)O

T1: alpha subunit of the human FcεRI receptor expressed on cells (human, UniProt P12319 26-257)
T1 construct: whole, on cells; on rat basophil RBL-48 cells in the histamine release assay; also called CHO FcεRI+ cells; cell surface expressed FcεRI
T1 sequence (looked up): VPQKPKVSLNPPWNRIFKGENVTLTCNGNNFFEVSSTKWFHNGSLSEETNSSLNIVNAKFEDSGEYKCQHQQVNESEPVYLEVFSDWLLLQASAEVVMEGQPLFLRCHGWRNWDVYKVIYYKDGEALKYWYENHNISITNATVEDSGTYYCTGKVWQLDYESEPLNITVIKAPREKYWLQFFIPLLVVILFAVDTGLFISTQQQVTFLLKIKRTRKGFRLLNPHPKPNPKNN

T2: alpha subunit of the human FcεRI receptor expressed on Chinese hamster ovary cells (human, UniProt P12319 26-257)
T2 construct: whole, on cells; also called CHO FcεRI+ cells
T2 sequence (looked up): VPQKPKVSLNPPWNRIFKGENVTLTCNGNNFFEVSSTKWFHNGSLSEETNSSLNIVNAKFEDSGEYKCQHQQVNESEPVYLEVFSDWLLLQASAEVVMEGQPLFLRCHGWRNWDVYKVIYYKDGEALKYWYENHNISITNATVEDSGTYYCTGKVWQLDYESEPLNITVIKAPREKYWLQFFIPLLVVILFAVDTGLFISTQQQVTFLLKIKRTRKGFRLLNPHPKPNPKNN


Target: T1, alpha subunit of the human FcεRI …
Experiment: inhibition of 125I-IgE binding to CHO cells expressing human FcεRI alpha
Experimental: (§1) To determine the ability of peptides to inhibit IgE binding to FcεRI, a cell-based binding assay was used with radiolabeled IgE. Chinese hamster ovary cells expressing the alpha subunit of the human FcεRI receptor were cultured overnight in Falcon 96 well microtiter plates at a concentration of 5 ×10^4 cells per well. The following day the cells were rinsed three times with PBS and then once with F12/DMEM. Peptide stocks were reconstituted in 100 mM Hepes buffered water, pH 7.2, at a concentration of 5 mg/mL. Working concentrations of the peptide were diluted in assay buffer (see below). 75 uL of a desired concentration of peptide was added to the top row of a separate 96 well microtiter plate and serially diluted 1:3 in 50 uL of the assay buffer (F12/DMEM, 1% BSA, 0.05% NaN_3 and 0.025 mM Hepes pH 7.2). Starting concentrations ranged from 50–500 uM. Next, 50 uL of the diluted peptide was transferred to the 96 microtiter well plate containing a monolayer of CHO FcεRI+ cells. […] Cells were
Alanine substitutions in IGE063 (SEQ ID NO:49) were used to assess sidechain contributions. The P9A (IGE070, SEQ ID NO:52) substitution had the largest impact with a >500× reduction in binding. […] Clearly the alanine substitutions at G8, P9, W10, G11 and W12 all had major impacts on binding FcεRI.

fold reduction in binding (against IGE063) | IC50 | fold improvement in activity over the … (SEQ ID NO:1) peptide | Binder
6 fold | – | – | Ac-NLPRCTAGPWGWVCMAAD-NH2 (disulfide 5-14 (inferred), also called E7A)
– | ~1 µM | – | Ac-NLPRCTEGPWGWVCM (disulfide 5-14 (inferred))
> 500 fold | – | – | NLPRCTEGAWGWVCM (disulfide 5-14 (inferred), also called P9A) [IGE070]
65 fold | – | – | NLPRCTEGPWGAVCM (disulfide 5-14 (inferred), also called W12A)
– | 37 µM | > 4 fold | EIQECTEGPWGWFCVGSG (disulfide 5-14 (inferred), also called peptide of clone g8b.11) [synthetic peptide EIQECTEGPWGWFCVGSG (SEQ ID NO:8)]

Target: T2, alpha subunit of the human FcεRI …
Experiment: inhibition of 125I-IgE binding to CHO cells expressing human FcεRI alpha subunit
Experimental: as §1, with “Cells were […]” for “Cells were”

IC50 | Binder
23 µM | Ac-NLPRCTEG[Pip]WGWVCM (disulfide 5-14 (inferred), synthetic) [IGE095]
60 µM | Ac-NLPRCTEG[NMeA]WGWVCM-NH2 (disulfide 5-14, synthetic) [IGE086]
2 µM | NLPRCTEGPWGWVCMAY (disulfide 5-14 (inferred), synthetic) [IGE076]
580 µM | Ac-NLPRCTEG[Hyp]WGWVCM (disulfide 5-14 (inferred), synthetic) [IGE101]
1 µM | NLPRCTEGPWGWVCM (disulfide 5-14 (inferred), synthetic) [IGE062]
28 µM | Ac-NLPCTEGPWGWVCM (disulfide 4-13 (inferred), synthetic; As printed it lacks the Arg before the first Cys) [IGE107]
1.2 µM | Ac-NLPRCTEGP[2Nal]GWVCM (disulfide 5-14 (inferred), synthetic) [IGE103]
3.3 µM | LPRCTEGPWGWVCM-NH2 (disulfide 4-13 (inferred), synthetic) [IGE068]
44 µM | Ac-NLPRCTEG[NMeA]WGWVCM (disulfide 5-14 (inferred), synthetic) [IGE096]
1.8 µM | Ac-NLPRCTEGPWGWVCM-NH2 (disulfide 5-14 (inferred), synthetic) [IGE058]
12.8 µM | NLPRCTEGPWGWVC-NH2 (disulfide 5-14 (inferred), synthetic) [IGE091]
2.5 µM | Ac-NLPRCTEGPWGWVC[hSer(lactone)] (disulfide 5-14 (inferred)) [IGE133]
1.4 µM | NLPRCTEGPWGWVCMAAD-NH2 (disulfide 5-14 (inferred), synthetic) [IGE043]
136 µM | Ac-NLPRCTEG[Sar]WGWVCM-NH2 (disulfide 5-14, synthetic) [IGE087]
0.8 µM | NLPRCTEGPWGWVCM-NH2 (disulfide 5-14 (inferred), synthetic) [IGE057]
14.3 µM | Ac-NLPRCTEGPWGWACM (disulfide 5-14 (inferred), synthetic) [IGE209]
1.4 µM | NLPRCTEGPWGWVCI (disulfide 5-14 (inferred), synthetic) [IGE075]
126 µM | NLPRCTEGPWGWYCM (disulfide 5-14 (inferred), synthetic) [IGE077]
118 µM | NLPRCTEGPWGAVCM (disulfide 5-14 (inferred), synthetic)

IC50 | Binder
84 µM | Ac-NLPRCTEGPVGWVCM (disulfide 5-14 (inferred), synthetic) [IGE106]
10.6 µM | Ac-NLPRCTEGPWGLVCM (disulfide 5-14 (inferred), synthetic) [IGE109]
462 µM | NLPRCTEAPWGWVCM (disulfide 5-14 (inferred), synthetic) [IGE079]
6.85 µM | Ac-NLPRCAEGPWGWVCM (disulfide 5-14 (inferred), synthetic) [IGE208]
81.5 µM | NLPRCTEGPAGWVCM (disulfide 5-14 (inferred), synthetic) [IGE072]
43 µM | NLPRCTEGPWAWVCM (disulfide 5-14 (inferred), synthetic) [IGE074]
364 µM | Ac-NLPRCTEG[Oic]WGWVCM (disulfide 5-14 (inferred), synthetic) [IGE100]
3.4 µM | Biotin-NLPRCTEGPWGWVCM (disulfide 5-14 (inferred), synthetic) [IGE078]
10.8 µM | Ac-NLPRCTEGPKGWVCMADD-NH2 (disulfide 5-14 (inferred), synthetic) [IGE032]
10.5 µM | Ac-NLPRCTAGPWGWVCMAAD-NH2 (disulfide 5-14 (inferred), synthetic)
23.7 µM | NLPRCTEGPNGWVCMAAD-NH2 (disulfide 5-14 (inferred), synthetic) [IGE051]
19.4 µM | Ac-NLPRCTEGPNGWVCMAAD-NH2 (disulfide 5-14 (inferred), synthetic) [IGE050]
84 µM | Ac-NLPRCTEG[Sar]WGWVCM (disulfide 5-14 (inferred), synthetic) [IGE097]
34 µM | PRCTEGPWGWVCM-NH2 (disulfide 3-12 (inferred), synthetic) [IGE069]
38.5 µM | Ac-NLPRCTEG[Pip]WGWVCM-NH2 (disulfide 5-14, synthetic) [IGE085]
20 µM | Ac-NLPRCTEGPWGWVC-NH2 (disulfide 5-14 (inferred), synthetic) [IGE092]
1.8 µM | Ac-NLPRCTEGPWGWVCM (disulfide 5-14 (inferred), synthetic)
7.6 µM | Ac-EIQECTEGPWGWVCM-NH2 (disulfide 5-14 (inferred), synthetic) [IGE090]
259 µM | Ac-NLPRCTEGPAWGWVCM (disulfide 5-15 (inferred), synthetic) [IGE125]
